Test results published in paper PMC7411048, “ATP-dependent hydroxylation of an unactivated primary carbon with water” (Nature Communications, 2020).

Legend:
[1] = substrate: CC(C)=CCC[C@@H](C)[C@H]1CC[C@H]2[C@@H]3CCC4=CC(=O)C=C[C@]4(C)[C@H]3CC[C@]12C; assay: UPLC assay of DDO hydroxylation to 26-OH-DDO; type: biochemical, Sterolibacterium denitrificans; details: 5 mM K3[Fe(CN)6] as electron acceptor, 50 mM MOPS/KOH pH 7.0, 6% HPCD, 30 °C, anaerobic, enriched enzyme
[2] = substrate: C/C(=C\CC[C@@H](C)[C@H]1CC[C@H]2[C@@H]3CCC4=CC(=O)C=C[C@]4(C)[C@H]3CC[C@]12C)CO; assay: UPLC assay of 26-OH-DDO dehydrogenation to DDO-26-al; type: biochemical, Sterolibacterium denitrificans; details: 5 mM K3[Fe(CN)6] as electron acceptor, 50 mM MOPS/KOH pH 7.0, 6% HPCD, 30 °C, anaerobic, enriched enzyme

B1: S26DH1 (desmost-1,4-dien-3-one (DDO) hydroxylase; DH5) (Sterolibacterium denitrificans) (protein)
chain: PLQHFKGTTASGRFDLGPRTTPKLGNWQDLYRQRWTWDKVAKGSHGWANCRSACEWDLYVKDGVVVREEQSATYEASEPGIPDFNPRGCQKGACYTEVMYGPSRTTVPLKRVGPRGSGKWEKISWEQALREIAVKTVDAAEKWGTDTIYQDLGPNFDFGASTAGRFKFQFMAGGIFADNWAEIGDLNVGASITVGAAHLGGSADEWFLSDFIVVWMMNPSVTQIPDAHFLYEARYNGTELCVIDPQYSATAIHADQWLPLESGTDAALGLAVARYLLDTGAIDLPYIREQTDLPLLARLDTGRFLRESDLKAGGDEDQLYMWHPQKNAAVPAPGCLKNTTRSLKLDFEPPIDGQWKIKLANGEEVVVVPVGAMLKEHLDPWTFEHAAQVTHLHIDQIRKFAEGWAKAERPMVLSSWGSNRYVHSDLMNRTKMLLLMLKGALGKKGAGYQATGWVDLDGFGNAMQMEKSGMTGRLAVMLNAMPPKELFNAIVDIIKKRKTENDVALEGENNYLRNKLCTSDVVEVNLKSEGYRAALSKEQEGLYPRELSDYYDEAHEKGWAPGLPRKNTPKIFFSGGSNLLRRNNLPQYLKAHIWDQMDCIVDVNPKYSYTGTQADYILPAAGWYEKTGIKYTMSYIPYLHYCDAAVPPLAESKGEWEIYWLLTREMENYAKEKNQPILDGCGRGTIDMKTIHQRYTNQGDLGQHDQDKVTEEILRSESTKGMTVEGLRQTGIAKYTATGKNVQATALNNPDWKGEGVLTTLTRFTVHKEPWPTYSGRISSFIDHPWFIEGHEQFATHKDSPKAGGDYPFIFVSCHARWSIHSTWRDTPMMLRLQRGEPLVYLNPTDAAKIGVKDFEYVEIYNNYGSIRMRLKVTAMVRPGVAYYYHAWEPHQFPNHESYKNLIPGIVQPLHYAGGYGHINHALNRFQPGSAVQDTRIGIKPWTGQATGVKPVVVTAEEAAIAERANQAI
notes: alpha-beta-gamma complex, Mo-cofactor/FeS/heme b; produced in Thauera aromatica K172 with delta-chaperone (SdhD, delta4); enriched by three columns; with Steroid C26 dehydrogenase 1 beta subunit (FeS electron transfer subunit); Steroid C26 dehydrogenase 1 gamma subunit (heme b subunit)
Km [1]: 123 ± 25 µM
Km [2]: 83 ± 12 µM
